By IC50 is commonly meant the concentration needed to halve the response being measured. A high value points to a need for much substance.

Experiment [1] concerns the target T1, HCMV UL54 protein (HCMV DNA polymerase) (HCMV strain AD169, UniProt P08546 1-1242).
T1 construct: mature; Purified from Sf cells infected with AcUL54
T1 sequence: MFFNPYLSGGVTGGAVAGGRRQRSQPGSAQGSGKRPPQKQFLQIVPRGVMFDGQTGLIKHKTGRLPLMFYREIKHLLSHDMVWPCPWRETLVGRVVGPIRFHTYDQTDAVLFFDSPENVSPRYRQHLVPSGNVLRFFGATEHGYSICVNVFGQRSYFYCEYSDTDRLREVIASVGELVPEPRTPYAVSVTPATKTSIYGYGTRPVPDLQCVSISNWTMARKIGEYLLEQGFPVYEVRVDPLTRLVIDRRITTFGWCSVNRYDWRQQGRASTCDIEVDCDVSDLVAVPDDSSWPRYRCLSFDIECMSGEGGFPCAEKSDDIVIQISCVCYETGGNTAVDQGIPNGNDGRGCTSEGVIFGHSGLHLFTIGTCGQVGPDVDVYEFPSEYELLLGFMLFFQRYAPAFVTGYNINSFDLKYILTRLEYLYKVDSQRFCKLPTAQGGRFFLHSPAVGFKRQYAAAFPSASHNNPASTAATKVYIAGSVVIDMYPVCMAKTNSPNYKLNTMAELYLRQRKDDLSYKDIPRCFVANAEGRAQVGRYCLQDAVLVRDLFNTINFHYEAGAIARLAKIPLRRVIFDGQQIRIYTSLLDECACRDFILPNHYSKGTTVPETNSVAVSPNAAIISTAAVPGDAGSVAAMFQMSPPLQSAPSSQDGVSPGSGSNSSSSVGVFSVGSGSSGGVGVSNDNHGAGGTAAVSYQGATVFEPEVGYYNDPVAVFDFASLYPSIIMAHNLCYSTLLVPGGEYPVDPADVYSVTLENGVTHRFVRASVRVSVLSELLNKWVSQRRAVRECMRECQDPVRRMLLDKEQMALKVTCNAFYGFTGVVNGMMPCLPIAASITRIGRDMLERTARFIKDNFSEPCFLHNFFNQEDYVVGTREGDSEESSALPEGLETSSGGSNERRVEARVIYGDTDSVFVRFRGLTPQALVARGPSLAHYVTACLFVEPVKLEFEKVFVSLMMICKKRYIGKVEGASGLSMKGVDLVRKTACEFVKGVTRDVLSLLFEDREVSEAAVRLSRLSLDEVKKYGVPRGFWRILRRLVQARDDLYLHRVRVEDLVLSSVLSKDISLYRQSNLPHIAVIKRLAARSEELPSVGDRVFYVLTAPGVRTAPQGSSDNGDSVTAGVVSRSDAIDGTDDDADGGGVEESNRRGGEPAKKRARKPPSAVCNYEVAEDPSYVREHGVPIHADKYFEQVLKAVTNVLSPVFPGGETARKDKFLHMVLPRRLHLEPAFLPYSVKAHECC
The experiment in a line: ELISA, UL102 coated (0 to 0.4 µg), UL54 added (0 to 0.6 µg), detected with antiserum 144.

The target of experiment [2] is T2, HSV-1 POL (UL30 protein, catalytic subunit of the HSV-1 DNA polymerase) (HSV-1, UniProt P04293 1-1235).
T2 construct: mature; Purified from Sf cells infected with baculovirus AcUL30
T2 sequence (looked up): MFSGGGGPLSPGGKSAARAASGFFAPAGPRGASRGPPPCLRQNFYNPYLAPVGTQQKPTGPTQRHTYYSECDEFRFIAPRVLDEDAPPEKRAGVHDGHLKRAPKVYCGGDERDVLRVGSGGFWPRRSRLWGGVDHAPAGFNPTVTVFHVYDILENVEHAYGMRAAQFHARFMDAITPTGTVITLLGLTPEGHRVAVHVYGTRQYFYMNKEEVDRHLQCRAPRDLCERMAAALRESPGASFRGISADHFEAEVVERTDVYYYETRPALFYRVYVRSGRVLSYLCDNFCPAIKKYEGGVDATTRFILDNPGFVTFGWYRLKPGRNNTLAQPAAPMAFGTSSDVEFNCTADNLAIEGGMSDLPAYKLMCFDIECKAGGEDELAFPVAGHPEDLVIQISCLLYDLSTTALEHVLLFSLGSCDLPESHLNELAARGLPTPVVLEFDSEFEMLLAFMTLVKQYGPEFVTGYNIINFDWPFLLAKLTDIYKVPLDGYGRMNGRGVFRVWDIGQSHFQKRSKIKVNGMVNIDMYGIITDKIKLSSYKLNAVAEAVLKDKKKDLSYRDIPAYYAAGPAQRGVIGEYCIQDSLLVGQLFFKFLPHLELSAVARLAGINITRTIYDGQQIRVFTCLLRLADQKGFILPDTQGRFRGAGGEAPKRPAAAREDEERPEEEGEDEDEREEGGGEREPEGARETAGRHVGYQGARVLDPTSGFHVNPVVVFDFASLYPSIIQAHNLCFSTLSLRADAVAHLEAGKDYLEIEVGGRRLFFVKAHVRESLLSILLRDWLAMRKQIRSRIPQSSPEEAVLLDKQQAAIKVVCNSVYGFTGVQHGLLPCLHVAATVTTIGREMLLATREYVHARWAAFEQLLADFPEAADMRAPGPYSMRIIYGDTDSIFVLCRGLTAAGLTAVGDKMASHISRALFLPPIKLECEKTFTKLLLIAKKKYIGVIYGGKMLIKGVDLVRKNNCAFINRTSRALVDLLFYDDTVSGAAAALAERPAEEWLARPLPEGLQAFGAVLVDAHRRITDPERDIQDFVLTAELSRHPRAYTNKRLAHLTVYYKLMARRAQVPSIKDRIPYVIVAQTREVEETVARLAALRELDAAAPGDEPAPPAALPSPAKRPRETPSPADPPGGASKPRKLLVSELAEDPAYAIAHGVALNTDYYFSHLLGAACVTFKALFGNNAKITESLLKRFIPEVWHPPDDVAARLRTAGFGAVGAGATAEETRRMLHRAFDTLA
The experiment is described as follows: competition ELISA: peptide incubated with POL 15 min, then added to UL8-coated wells. For orientation: ELISA stands for enzyme-linked immunosorbent assay.

The target of experiment [3] is T2, HSV-1 POL (UL30 protein, catalytic …). The experiment is described as follows: competition ELISA of FIG. 7: peptide incubated with POL 15 min, then added to UL8-coated wells.
The target is the same in experiment [4]. The experiment is described as follows: competition ELISA: peptide incubated with POL, then added to UL8-coated wells; average of independent experiments.

B1: HCMV UL102 protein (other)
chain: MTAQPPLHHRHHPYTLFGTSCHLSWYGLLEASVPIVQCLFLDLGGGRAEPRLHTFVVRGDRLPPAEVRAVHRASYAALASAVTTDADERRRGLEQRSAVLARVLLEGSALIRVLARTFTPVQIQTDASGVEILEAAPALGVETAALSNALSLFHVAKLVVIGSYPEVHEPRVVTHTAERVSEEYGTHAHKKLRRGYYAYDLAMSFRVGTHKYVLERDDEAVLARLFEVREVCFLRTCLRLVTPVGFVAVAVTDEQCCLLLQSAWTHLYDVLFRGFAGQPPLRDYLGPDLFETGAARSFFFPGFPPVPVYAVHGLHTLMRETALDAAAEVLSWCGLPDIVGSAGKLEVEPCALSLGVPEDEWQVFGTEAGGGAVRLNATAFRERPAGGDRRWLLPPLPRDDGDGENNVVEVSSSTGGAHPPSDDATFTVHVRDATLHRVLIVDLVERVLAKCVRARDFNPYVRYSHRLHTYAVCEKFIENLRFRSRRAFWQIQSLLGYISEHVTSACASAGLLWVLSRGHREFYVYDGYSGHGPVSAEVCVRTVVDCYWRKLFGGDDPGPTCRVQESAPGVLLVWGDERLVGPFNFFYGNGGAGGSPLHGVVGGFAAGHCGGACCAGCVVTHRHSSGGGGSGVGDADHASGGGLDAAAGSGHNGGSDRVSPSTPPAALGGCCCAAGGDWLSAVGHVLGRLPALLRERVSVSELEAVYREILFRFVARRNDVDFWLLRFQPGENEVRPHAGVIDCAPFHGVWAEQGQIIVQSRDTALAADIGYGVYVDKAFAMLTACVEVWARELLSSSTASTTACSSSSVLSSALPSVTSSSSGTATVSPPSCSSSSATWLEERDEWVRSLAVDAQHAAKRVASEGLRFFRLNA
notes: mature; Purified from Sf cells infected with AcUL102; The 873-residue form follows Smith and Pari (1995)
As to B1, in experiment [1], the binding result was “binds”.

B2: Peptide 5 (Table 2), UL8 residues 722-750 (peptide)
peptide: VFTGVLAGVWGEGGKFVYPFDDKMSFLFA
notes: Synthetic peptide, C-terminal 29 amino acids of HSV-1 UL8
Regarding B2, the binding result in experiment [2] is “binds”.

B3: Peptide 7 (Table 2), UL8 amino acids 719-738 (peptide)
peptide: IELVFTGVLAGVWGEGGKFV
notes: Synthetic 20-residue peptide from HSV-1 UL8
For the molecule B3, the half-maximal inhibitory concentration (IC50) in experiment [3] is roughly 1 µM; in experiment [4], 2.25 µM.

Source of the values: patent publication US20050164163A1 (MEDICAL RESEARCH COUNCIL, published 2005).
